Experimental data: patent US6989369B2, “Kunitz domain peptides” (Dyax Corp., priority 2003, dated 2006)
Positions of bridges follow the written chain, without caps; N, C: chain ends. No end group written: not given here.

Tests used:
[1] = Clinical testing of DX-88 for hereditary angioedema (HAE); assay type: in vivo, human; conditions: treatment of hereditary angioedema, initial data
HNE = target: T1, HNE (Homo sapiens, UniProt P08246); test: HNE-neutralizing activity expected for doubly fused protein; assay type: biochemical; conditions: expected value, protein not tested
T1 sequence (P08246 30-267): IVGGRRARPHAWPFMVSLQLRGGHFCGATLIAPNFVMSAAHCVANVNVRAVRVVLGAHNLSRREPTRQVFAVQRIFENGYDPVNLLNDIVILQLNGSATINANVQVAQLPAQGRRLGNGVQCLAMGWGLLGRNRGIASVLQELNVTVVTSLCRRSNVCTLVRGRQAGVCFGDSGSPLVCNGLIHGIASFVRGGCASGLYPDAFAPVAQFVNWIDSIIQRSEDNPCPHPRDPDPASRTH

[2] = rabbit
Text: After radiolabeling, the two labeled protein preparations were purified from unbound label by size exclusion chromatography (SEC). Fractions from the SEC column having the highest radioactivity were pooled. The purified, radiolabeled preparations were characterized for specific activity by scintillation counting and for purity by SEC using a Superose-12 column equipped with an in-line radiation detector.
New Zealand White rabbits (ca. 2.5 Kg) were used for clearance measurements, with one animal each used for of the two labeled protein preparations. The radiolabeled preparation was injected into the animal via an ear vein. One blood sample was collected per animal per time point with early time points at approximately 0, 7, 15, 30, and 90 minutes and later time points at 4, 8, 16, 24, 48, 72, 96, 144, 168, and 192 hours. Samples (about 0.5 ml) were collected into anticoagulant (EDTA) tubes. Cells were separated from the plasma/serum fraction by centrifugation. The plasma fraction was divided into two aliquots. One plasma aliquot was stored at −70° C. and the other aliquot was kept at 4° C. for immediate analyses. Sample analyses included radiation counting for clearance rate determinations and SEC chromatography for in vivo stability.

[3] = about 840 mg, 80 open-heart surgery patients; cited from earlier work
[4] = after 8 days of treatment; cited from earlier work

DX-88: Kunitz domain derived from the first Kunitz domain of human LACI, inhibits human plasma kallikrein; SEQ ID No.: 48 (EAMHSFCAFKADDGPCRAAHPRWFFNIFTRQCEEFIYGGCEGNQNRFESLEECKKMCTRD; DX-88 Kunitz domain peptide)
safety and efficacy in the clinic [1]: safe and effective

Dx890-HA-Dx890: albumin fused at both termini to DX-890 via (GGS)4GG linkers; SEQ ID No.: 75
HNE-neutralizing activity relative to DX890 (HNE): ~16%

EACNLPIVRGPCIAFFPRWAFDAVKGKCVLFPYGGCQGNGNKFYSEKECREYCGVP (disulfide 3-53, 12-36, 28-49) [DX-890]
in vivo stability, SEC analysis of plasma [2]: relatively rapid association of label with higher molecular weight plasma components
% α ([2]; in vivo): 75%
% β ([2]; in vivo): 25%
Clearance Times T1/2α ([2]; in vivo): 24 s

bovine pancreatic trypsin inhibitor [BPTI]
decrease of mean amount transfused [3]: 74%
reduction of blood loss [3]: almost half

B1: Pulmozyme: a recombinant human deoxyribonuclease which reduces mucus viscoelasticity by hydrolyzing DNA in sputum (protein, UniProt P24855 23-282, looked up)
Deoxyribonuclease-1: LKIAAFNIQTFGETKMSNATLVSYIVQILSRYDIALVQEVRDSHLTAVGKLLDNLNQDAPDTYHYVVSEPLGRNSYKERYLFVYRPDQVSAVDSYYYDDGCEPCGNDTFNREPAIVRFFSRFTEVREFAIVPLHAAPGDAVAEIDALYDVYLDVQEKWGLEDVMLMGDFNAGCSYVRPSQWSSIRLWTSPTFQWLIPDSADTTATPTHCAYDRIVVAGMLLRGAVVPDSALPFNFQAAYGLSDQLAQAISDHYPVEVMLK
effect on pulmonary function [4]: increase FEV1 and FVC
